Patent US20080098490A1

Assays:
[1] = target: IL-8 receptors on human neutrophils; assay: 125I-IL-8 binding to human neutrophils, no antibody
[2] = target: TNF-α receptors on U937 cells; assay: 125I-TNF-α binding to U937 cells, no antibody
[3] = target: EGFR expressed on A431 cells or SW948 cells (human) (UniProt P00533); assay: inhibition of [125I]EGF binding to A431 cells (receptor binding assay, % specific bound); blocked ligand: EGF

Q: With “human IL-8 (from UniProt P10145 28-99) (ligand)” as the substance, how does the background binding in the absence of antibody [1] read?
A: Its background binding in the absence of antibody is 2660 cpm.

Q: With “human tumor necrosis factor-α (from UniProt P01375 77-233) (ligand)” as the substance, how does the background binding in the absence of antibody [2] read?
A: Its background binding in the absence of antibody is 4010 cpm.

Q: How did the IC50 (read off the curve) [3] turn out when “mouse anti-human EGFR antibody 225 (Calbiochem)” was run?
A: The IC50 (read off the curve) was 20 nM.
